Reference: the supplement of paper PMC9732359
± gives the uncertainty stated by the source.

Assay: protein stability index of a GFP-peptide fusion (yeast GPS) (PSI 1-4); higher = more stable; sorted into four equal gates, so the index is relative within each strain
Method in brief: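 For each peptide, the protein stability index sums the read frequency in every gate after multiplying it by the gate number. Read frequencies came from plasmids that were PCR-amplified from each gate and Illumina-sequenced, with reads assigned to strains by barcodes. The gates were four equal bins of GFP/Cherry fluorescence ratio applied to mid-log yeast in leucine-free medium carrying a pooled library of tiled 17-residue yeast protein peptides fused downstream of GFP on a Cherry-expressing plasmid.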

| Sequence | protein stability index (doa10∆) | protein stability index (pdr5∆) | protein stability index (san1∆) | protein stability index (ubr1∆) |
| --- | --- | --- | --- | --- |
| GSTTIEKKNDENSTSNS [YLR335W/NUP2] | 3.1 ± 0.085 | 3.18 ± 0.097 | 3.18 ± 0.06 | 3.17 ± 0.044 |
| PRVKGFKMNEIVPLHSP [SEC65] | 2.89 ± 0.087 | 3.01 ± 0.12 | 3.09 ± 0.079 | 2.87 ± 0.066 |
| KVSPSMCGVIVKQYNKK [SIN4] | 3 ± 0.19 | 2.98 ± 0.15 | 2.58 ± 0.15 | 3.15 ± 0.14 |
| HQQQLQQPHYIQRTRER [DSN1] | 2.95 ± 0.055 | 3.08 ± 0.042 | 2.92 ± 0.037 | 2.84 ± 0.042 |
| PAFSFNSSVGNKTDAQA [YJL041W/NSP1] | 2.82 ± 0.14 | 3.47 ± 0.11 | 2.85 ± 0.1 | 3.16 ± 0.085 |
| HEVQYQESSSTLSTHST [SIN4] | 2.68 ± 0.037 | 2.78 ± 0.036 | 2.87 ± 0.041 | 2.83 ± 0.032 |
| DNDTVVTNDDKSDDDDH [SRB8] | – | 2.88 ± 0.15 | 3.24 ± 0.26 | 3.19 ± 0.11 |
| HGKASRQQYYSGVQVGG [SNF6] | 2.43 ± 0.061 | 2.8 ± 0.063 | 2.61 ± 0.052 | 2.21 ± 0.05 |
| LSGGQKTVCAIALILAI [SMC3] | – | 1.94 ± 0.19 | – | 2.74 ± 0.12 |
| KYHNDLIEKEIQPKITE [SMC1] | 3.11 ± 0.13 | 3.05 ± 0.083 | 2.71 ± 0.073 | 3.07 ± 0.059 |
| WREIIEKVRDYENSISK [IRR1] | 2.86 ± 0.076 | 2.59 ± 0.085 | 2.39 ± 0.061 | 2.67 ± 0.047 |
| ILNLLNILTTHLSHPGT [ECM29] | 2.03 ± 0.042 | 1.75 ± 0.04 | 1.65 ± 0.05 | 1.76 ± 0.037 |
| WGVNLPAHTVIIKGTDV [BRR2] | 2.82 ± 0.086 | 2.79 ± 0.13 | 2.32 ± 0.083 | 2.58 ± 0.058 |
| VSIVKLDTQLITLLPSS [SNF12] | 1.73 ± 0.051 | 1.9 ± 0.05 | 1.95 ± 0.084 | 1.97 ± 0.051 |
| KIPAVEYFGGESPVDVQ [FAS1] | 2.97 ± 0.13 | 3.4 ± 0.099 | 3.19 ± 0.1 | 3.09 ± 0.092 |
| KLTQKLVTAGVAAAGIT [CYT1] | 2.1 ± 0.083 | 2.21 ± 0.086 | 2.56 ± 0.065 | 2.11 ± 0.052 |
| SAGDDGKVRLWKATYSN [YGL100W/SEH1] | 2.74 ± 0.061 | 2.89 ± 0.089 | 2.74 ± 0.06 | 3 ± 0.058 |
| DNTARVIFDASIKDTQN [BRN1] | 2.1 ± 0.078 | 2.06 ± 0.064 | 2.42 ± 0.1 | 2.68 ± 0.048 |
| IYQTLIALNLDTTVNDC [SNF2] | 2.19 ± 0.035 | 2.53 ± 0.04 | 2.25 ± 0.054 | 2.35 ± 0.033 |
| KVPQQAAGKRISHIEKR [SMC1] | 3.04 ± 0.11 | 3.14 ± 0.12 | 2.97 ± 0.095 | 3.15 ± 0.12 |
| PYEMYKYVHVSEVGNCS [FAS2] | 2.23 ± 0.056 | 2.53 ± 0.062 | 2.11 ± 0.068 | 2.11 ± 0.048 |
| GDMTNSDAQSNLGSNVR [REC8] | 2.92 ± 0.28 | 3.52 ± 0.15 | 2.87 ± 0.17 | 3.25 ± 0.096 |
| FNDSQAIVCYILFELYK [SRP72] | 1.95 ± 0.056 | 2.31 ± 0.047 | 2.01 ± 0.061 | 2.36 ± 0.053 |
| IYYDSYIHLAYSRSVDK [SSN2] | 2.71 ± 0.13 | 2.78 ± 0.14 | 2.89 ± 0.11 | 3.26 ± 0.088 |
| LDYVRTPAAATSPIDIR [SNF2] | 2.33 ± 0.056 | 2.45 ± 0.063 | 2.14 ± 0.077 | 2.36 ± 0.045 |
| MESIGSDILTAEKMRGN [RRP4] | 3.1 ± 0.13 | 3.43 ± 0.12 | 3.14 ± 0.093 | 3.34 ± 0.092 |
| DWESDLHIHLNQILQTE [YDL116W/NUP84] | 2.69 ± 0.1 | 3.07 ± 0.087 | 2.77 ± 0.092 | 2.81 ± 0.15 |
| LSVEIGVLTDISSLIGG [NUT1] | 1.32 ± 0.13 | 1.95 ± 0.11 | 1.89 ± 0.25 | 2.18 ± 0.12 |

| Sequence | protein stability index (doa10∆) | protein stability index (pdr5∆) | protein stability index (san1∆) | protein stability index (ubr1∆) |
| --- | --- | --- | --- | --- |
| LIIDDPSKGQSLSKISQ [RPP1] | 2.77 ± 0.07 | 2.81 ± 0.063 | 3.04 ± 0.055 | 3.02 ± 0.056 |
| EALVQAFAFCIPVYCFS [YCG1] | 1.68 ± 0.071 | 1.83 ± 0.056 | 1.73 ± 0.16 | 1.51 ± 0.064 |
| LLHEMTQTYMQMIELNR [GRR1] | 2.18 ± 0.072 | 2.11 ± 0.051 | 2.2 ± 0.088 | 1.68 ± 0.048 |
| FNKEQLNKFKKAIFQFV [ECM29] | 1.58 ± 0.15 | 1.27 ± 0.096 | – | 1.15 ± 0.069 |
| VHSSSPSTSSNMDVGNP [GAL11] | 2.89 ± 0.071 | 2.75 ± 0.066 | 2.69 ± 0.075 | 3.14 ± 0.054 |
| TLSNGLIASHYGVSFFT [BRR2] | 2.74 ± 0.055 | 2.84 ± 0.045 | 2.39 ± 0.059 | 2.83 ± 0.04 |
| QNISPVYSVDPLEKITD [PRP8] | 2.94 ± 0.083 | 2.9 ± 0.084 | 2.86 ± 0.054 | 2.85 ± 0.079 |
| RLISSKMPGGFTITVAR [FAS2] | 1.65 ± 0.038 | 2 ± 0.063 | 1.52 ± 0.073 | 1.92 ± 0.044 |
| GTNPLSSDGAYTEQFQH [SSN2] | 3.23 ± 0.093 | 3.09 ± 0.075 | 2.96 ± 0.055 | 3.06 ± 0.062 |
| PAFSNSNGFNNVTFGSK [YMR153W/NUP53] | 2.68 ± 0.054 | 2.96 ± 0.067 | 3.1 ± 0.037 | 3.13 ± 0.048 |
| TTSERVSNENKKNIDYQ [RRI1] | 2.98 ± 0.083 | 3.03 ± 0.09 | 3.13 ± 0.085 | 3.05 ± 0.18 |
| TRAKAKVEEMNNIIAAS [RPL36A] | – | 3.18 ± 0.14 | – | – |
| ATTGGLFGSKPQGSTTN [YGR119C/NUP57] | 3.34 ± 0.1 | 3.37 ± 0.1 | 3.39 ± 0.12 | 3.55 ± 0.18 |
| DDLKQKKEELVEIAYHK [RPO31] | 3.18 ± 0.16 | 3.13 ± 0.072 | 3.08 ± 0.14 | 3.08 ± 0.082 |
| YVMERPKNVPTSKWLNS [YDL116W/NUP84] | 2.61 ± 0.057 | 2.75 ± 0.055 | 2.63 ± 0.072 | 2.82 ± 0.043 |
| AALDLSHTQNIGHLIKT [SMC2] | 2.88 ± 0.083 | 2.47 ± 0.063 | 2.27 ± 0.087 | 2.72 ± 0.046 |
| FISAARYKPKSHLWEID [RPC37] | 3.02 ± 0.11 | 3.06 ± 0.082 | 2.71 ± 0.067 | 3.11 ± 0.069 |
| ETANVASLNLLQLAPGA [RPL4A] | 2.84 ± 0.14 | 3.02 ± 0.18 | 3.29 ± 0.078 | 3.27 ± 0.11 |
| SYRGVDLEKLLEMSTED [RPS15] | 2.76 ± 0.14 | 2.86 ± 0.12 | 2.27 ± 0.2 | 3.19 ± 0.083 |
| NPHDTLNRIKKYLLTQR [PRP8] | 2.22 ± 0.095 | 2.14 ± 0.08 | 2.25 ± 0.11 | 2.27 ± 0.15 |
| PLLESFITFSLDDWISI [IRR1] | 3.04 ± 0.078 | 2.46 ± 0.063 | 2.5 ± 0.054 | 2.54 ± 0.052 |
| TTARAKARAKKTKKEKG [RPN2] | 3.31 ± 0.15 | 3.63 ± 0.2 | 3.16 ± 0.079 | 3.21 ± 0.089 |
| IKPKIALQDKEITSVLS [SNF12] | 2.31 ± 0.082 | 2.39 ± 0.1 | 2.36 ± 0.16 | 2.28 ± 0.093 |
| PMVSVMKMDKSPTESYS [RPT2] | 1.64 ± 0.11 | 1.57 ± 0.088 | 1.11 ± 0.2 | 1.71 ± 0.093 |
| SKLIPEVINKEIENATK [RPS1A] | 2.86 ± 0.22 | – | 2.78 ± 0.23 | 3.16 ± 0.19 |
| TLRCSVVEACGNIVAEL [YCS4] | 1.87 ± 0.095 | 2.19 ± 0.093 | 2.17 ± 0.15 | 1.55 ± 0.062 |
| TDLPIETAAMASLALAH [RPN1] | 1.5 ± 0.046 | 1.66 ± 0.043 | 1.58 ± 0.063 | 1.43 ± 0.045 |
